In article PMC3594540 (Nature structural & molecular biology, 2013):

Tests used:
[1] = biological target: T1, human PLCβ3 (residues 10–1234) (human, UniProt Q01970 10-1234); experiment: cell-based or functional assay
T1 sequence: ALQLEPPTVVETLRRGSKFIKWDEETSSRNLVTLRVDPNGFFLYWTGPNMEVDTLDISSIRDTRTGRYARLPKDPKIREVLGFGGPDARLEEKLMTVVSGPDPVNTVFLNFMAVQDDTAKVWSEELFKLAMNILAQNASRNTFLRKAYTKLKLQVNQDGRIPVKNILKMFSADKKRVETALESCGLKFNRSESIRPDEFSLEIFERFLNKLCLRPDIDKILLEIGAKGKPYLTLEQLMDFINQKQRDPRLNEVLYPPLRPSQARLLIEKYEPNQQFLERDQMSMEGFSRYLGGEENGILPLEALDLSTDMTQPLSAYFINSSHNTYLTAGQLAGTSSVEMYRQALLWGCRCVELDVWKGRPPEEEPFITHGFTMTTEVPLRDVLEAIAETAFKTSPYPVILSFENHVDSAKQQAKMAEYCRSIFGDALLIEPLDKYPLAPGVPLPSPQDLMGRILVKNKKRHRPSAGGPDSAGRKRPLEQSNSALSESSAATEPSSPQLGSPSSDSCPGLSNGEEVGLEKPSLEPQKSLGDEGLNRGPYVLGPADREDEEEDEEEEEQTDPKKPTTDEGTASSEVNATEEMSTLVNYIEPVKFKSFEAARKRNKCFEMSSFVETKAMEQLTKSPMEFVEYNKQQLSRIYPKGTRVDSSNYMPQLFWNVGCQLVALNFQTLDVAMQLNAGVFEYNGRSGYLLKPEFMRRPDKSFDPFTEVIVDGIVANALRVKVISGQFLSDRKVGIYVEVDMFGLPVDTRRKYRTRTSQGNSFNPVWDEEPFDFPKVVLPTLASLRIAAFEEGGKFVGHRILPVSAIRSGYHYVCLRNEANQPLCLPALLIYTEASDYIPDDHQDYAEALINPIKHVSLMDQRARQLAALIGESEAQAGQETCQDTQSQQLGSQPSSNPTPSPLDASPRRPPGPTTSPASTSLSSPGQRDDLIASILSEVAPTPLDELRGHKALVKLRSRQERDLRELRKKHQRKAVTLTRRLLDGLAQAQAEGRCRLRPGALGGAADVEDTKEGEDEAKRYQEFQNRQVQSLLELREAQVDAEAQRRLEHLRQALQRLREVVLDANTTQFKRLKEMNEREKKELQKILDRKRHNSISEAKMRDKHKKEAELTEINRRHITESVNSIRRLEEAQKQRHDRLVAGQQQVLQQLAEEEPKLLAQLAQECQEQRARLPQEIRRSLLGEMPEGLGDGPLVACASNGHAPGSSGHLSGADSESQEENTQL

PLCβ3 T652E = biological target: T2, PLCβ3 T652E (human, UniProt Q01970); experiment: cell-based or functional assay
T2 chain: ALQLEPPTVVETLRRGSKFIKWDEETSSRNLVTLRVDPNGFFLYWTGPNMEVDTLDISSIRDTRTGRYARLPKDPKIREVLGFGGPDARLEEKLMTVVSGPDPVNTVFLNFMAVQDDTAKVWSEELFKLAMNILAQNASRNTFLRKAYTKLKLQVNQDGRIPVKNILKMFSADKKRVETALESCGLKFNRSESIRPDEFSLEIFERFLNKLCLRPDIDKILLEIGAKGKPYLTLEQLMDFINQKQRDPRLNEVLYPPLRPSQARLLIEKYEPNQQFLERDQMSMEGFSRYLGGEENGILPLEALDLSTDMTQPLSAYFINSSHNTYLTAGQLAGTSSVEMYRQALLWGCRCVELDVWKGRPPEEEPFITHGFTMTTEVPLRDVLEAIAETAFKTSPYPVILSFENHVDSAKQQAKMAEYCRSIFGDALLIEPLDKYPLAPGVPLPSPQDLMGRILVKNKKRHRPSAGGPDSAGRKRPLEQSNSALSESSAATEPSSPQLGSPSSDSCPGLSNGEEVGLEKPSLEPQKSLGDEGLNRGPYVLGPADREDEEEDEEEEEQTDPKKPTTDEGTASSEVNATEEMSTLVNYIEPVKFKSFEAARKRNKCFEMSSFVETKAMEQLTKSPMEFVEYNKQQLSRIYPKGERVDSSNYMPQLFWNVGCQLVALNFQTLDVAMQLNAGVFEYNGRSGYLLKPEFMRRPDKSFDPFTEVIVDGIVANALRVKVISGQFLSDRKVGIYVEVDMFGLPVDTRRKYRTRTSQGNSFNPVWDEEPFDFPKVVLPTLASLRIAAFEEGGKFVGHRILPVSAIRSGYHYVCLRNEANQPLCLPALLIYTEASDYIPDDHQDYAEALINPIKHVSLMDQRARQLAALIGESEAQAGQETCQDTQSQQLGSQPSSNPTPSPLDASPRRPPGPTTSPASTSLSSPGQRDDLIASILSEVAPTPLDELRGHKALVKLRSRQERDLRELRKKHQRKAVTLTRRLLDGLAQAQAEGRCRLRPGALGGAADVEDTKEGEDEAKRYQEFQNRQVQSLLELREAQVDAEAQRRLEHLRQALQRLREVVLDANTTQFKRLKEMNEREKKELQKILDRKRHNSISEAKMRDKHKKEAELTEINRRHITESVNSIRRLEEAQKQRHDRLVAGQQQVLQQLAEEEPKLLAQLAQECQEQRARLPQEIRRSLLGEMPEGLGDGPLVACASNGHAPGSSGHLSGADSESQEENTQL

B1: murine Gαq (residues 7–359), biotinylated for bead binding (natural protein)
chain: MACCLSEEAKEARRINDEIERQLRRDKRDARRELKLLLLGTGESGKSTFIKQMRIIHGSGYSDEDKRGFTKLVYQNIFTAMQAMIRAMDTLKIPYKYEHNKAHAQLVREVDVEKVSAFENPYVDAIKSLWNDPGIQECYDRRREYQLSDSTKYYLNDLDRVADPSYLPTQQDVLRVRVPTTGIIEYPFDLQSVIFRMVDVGGQRSERRKWIHCFENVTSIMFLVALSEYDQVLVESDNENRMEESKALFRTIITYPWFQNSSVILFLNKKDLLEEKIMYSHLVDYFPEYDGPQRDAQAAREFILKMFVDLNPDSDKIIYSHFTCATDTENIRFVFAAVKDTILQLNLKEYNLV
B1 was tested, and the “EC50 of Gαq-stimulated PIP2 hydrolysis ([3H]-IP3 release from liposomes)” value [1] was 120 nM, the “Max specific activity of Gαq-stimulated PIP2 hydrolysis (liposomes)” value [1] was 2900 nmol IP3/min/nmol PLCβ3 and the “EC50 of Gαq-stimulated PIP2 hydrolysis ([3H]-IP3 release from liposomes)” value (PLCβ3 T652E) was 1150 nM.
